Where no end group is shown, it is not given here. [ ]: non-standard residue; d: D form. pY = N[C@@H](Cc1ccc(OP(=O)(O)O)cc1)C(=O)O
T1: Full-length STAT1 protein (unphosphorylated) (human, UniProt P42224 1-750)
T1 construct: also called U-STAT1; pEXP-nHis-STAT1
T1 sequence (looked up): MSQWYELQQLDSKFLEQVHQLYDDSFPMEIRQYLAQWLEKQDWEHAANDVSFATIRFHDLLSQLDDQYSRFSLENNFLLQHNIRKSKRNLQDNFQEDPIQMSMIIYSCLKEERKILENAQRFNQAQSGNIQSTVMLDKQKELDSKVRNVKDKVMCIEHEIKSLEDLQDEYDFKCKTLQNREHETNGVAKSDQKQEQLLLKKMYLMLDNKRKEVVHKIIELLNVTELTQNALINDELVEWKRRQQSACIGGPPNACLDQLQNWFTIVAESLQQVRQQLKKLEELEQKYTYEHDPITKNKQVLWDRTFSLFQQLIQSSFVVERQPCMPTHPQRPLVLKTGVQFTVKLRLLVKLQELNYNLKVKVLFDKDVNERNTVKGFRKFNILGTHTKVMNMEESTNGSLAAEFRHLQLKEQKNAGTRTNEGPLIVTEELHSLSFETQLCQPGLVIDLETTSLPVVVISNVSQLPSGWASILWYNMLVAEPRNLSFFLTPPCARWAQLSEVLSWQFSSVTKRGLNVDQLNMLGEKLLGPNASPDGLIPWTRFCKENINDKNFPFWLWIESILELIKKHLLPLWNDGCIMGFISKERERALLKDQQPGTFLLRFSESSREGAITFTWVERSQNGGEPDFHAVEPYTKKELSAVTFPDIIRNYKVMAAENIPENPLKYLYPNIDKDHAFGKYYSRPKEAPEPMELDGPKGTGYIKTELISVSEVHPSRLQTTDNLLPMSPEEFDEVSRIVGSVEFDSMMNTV

T2: Full-length STAT1 protein (unphosphorylated, U-STAT1) (UniProt P42224 1-750)
T2 construct: also called STAT1 FL
T2 sequence (looked up): T1 sequence (looked up)

B1: GB1-018 (natural protein)
chain: MSSKGGSSGGMWSVFIHGHDGSNKGSKTYTSGGGGMWGGGSSSGVKSGVNGGVKSGTGKI
B2: pIFNGR1 5-mer peptide (Ac-pYDKPH-NH2) (peptide)
peptide: Ac-[pY]DKPH-NH2
SMILES: CC(=O)N[C@@H](Cc1ccc(OP(=O)(O)O)cc1)C(=O)N[C@@H](CC(=O)O)C(=O)N[C@@H](CCCCN)C(=O)N1CCC[C@H]1C(=O)N[C@@H](Cc1c[nH]cn1)C(N)=O
notes: also called pIFNGR 5-mer

The binders below were run against T1, Full-length STAT1 protein … (assay: ITC). Conditions: both partners purified.

| Binder | Kd [nM] | stoichiometry N |
| --- | --- | --- |
| B1 | 291 | 1.02 |
| MWSVFIHGHDGSNKGSKTYTS (also: phospho, position not given here) [018 phospho 21-mer peptide] | 174 | – |
| MWSVFIHGHDGSNKGSKTYTS [018 21-mer peptide] | 321 | – |
| MWSVFIHGHDGSNKGSK (domain or fragment) [GB1-018^T3] | > 10000 | – |
| MWSVFIHGHDGSNKGSKTYTS (domain or fragment) [GB1-018^T2] | 235 | – |

What follows are binders tested against T2, Full-length STAT1 protein … (assay: ITC). Conditions: both partners purified.

| Binder | stoichiometry N |
| --- | --- |
| MWSVFIHGHDGSNKGSK (domain or fragment) [GB1-018^T3 (018^T2 without the C-terminal 28-TYTS-31, fused to GB1)] | 1 |
| Ac-MWSVFIHGHDGSNKGSKT[pY]TS-NH2 [018 phospho 21-mer peptide (Ac-MWSVFIHGHDGSNKGSKT(pY)TS-NH2)] | 1.12 |
| Ac-MWSVFIHGHDGSNKGSKTYTS-NH2 [018 21-mer peptide (Ac-MWSVFIHGHDGSNKGSKTYTS-NH2)] | 1.09 |
| B2 | 0.708 |
| MWSVFIHGHDGSNKGSKTYTS (domain or fragment) [GB1-018^T2 (minimal fragment of 018, aa 11-31, fused to GB1)] | 1.01 |

The binders below were run against T1, Full-length STAT1 protein … (assay: fluorescence polarisation). Conditions: both partners purified.

| Binder | IC50 [nM] |
| --- | --- |
| B1 | 1260 |
| MWSVFIHGHDGSNKGSK (domain or fragment) [GB1-018^T3] | 17800 |
| MWSVFIHGHDGSNKGSKTYTS (domain or fragment) [GB1-018^T2] | 930 |

From paper PMC8912257 (Cell Host & Microbe, 2022)
